# Measurements reported in PMC8106670.
# What was measured:
# [1] = molecular target: ^HisBamA_(N427C) (E. coli) (UniProt P0A940); assay: cross-linking
# [2] = molecular target: ^HisBamA_(T809C) (E. coli) (UniProt P0A940); assay: cross-linking
substance,measurement,setting,value
^MBP−76EspP_(T984C) (from UniProt Q7BSW5 948-1300),percent disulfide-bonded,[1],40%
same,percent disulfide-bonded,[2],50%
